Data as given in FireProtDB (doi:10.1006/jmbi.1996.0075).
Values joined by “and” are separate entries in the source; they are usually repeats but may differ in a detail not shown here. Identical values can stand only once.

Conditions: Equus caballus, 20 °C, CD, reversible: yes; for unfolding free energy: Thermal

Cytochrome c wild type, P00004, sequence (P00004 whole entry): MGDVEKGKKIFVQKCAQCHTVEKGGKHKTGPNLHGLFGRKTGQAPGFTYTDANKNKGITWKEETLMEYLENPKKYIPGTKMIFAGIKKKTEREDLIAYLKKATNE

Cytochrome c wild type, P00004
denaturant m value (pH 2, GdnHCl, glycine-HCl 5-10 mM, NaClO4 200 mM): 1.58 kcal/mol/M and 1.24 kcal/mol/M and 1.12 kcal/mol/M
unfolding free energy (pH 3.9, Sodium acetate 5-10 mM, NaCl): 0.57 kcal/mol
unfolding free energy (pH 6, Sodium phosphate 5-10 mM, NaCl): 1.39 kcal/mol
denaturant m value (pH 7, GdnHCl, Sodium phosphate 5-10 mM, NaCl): 3.01 kcal/mol/M and 2.1 kcal/mol/M
unfolding free energy (pH 7, Sodium phosphate 5-10 mM, NaCl): 1.7 kcal/mol
denaturant m value (pH 7, Urea, Sodium phosphate 5-10 mM, NaCl): 1.2 kcal/mol/M and 0.86 kcal/mol/M
